US20070265189A1 (published 2007)

Experiments:
[1] = biological target: T1, Insulin receptor prepared according to Bass et al., 1996 (human, UniProt P06213 28-956, limits assumed); assay: phage ELISA: IR ratio over background divided by IGF-1R ratio over background
T1 construct: extracellular domain; also called IR; soluble IR (Bass construct); not shown: immunoglobulin constant domains (Fc or lambda) of the Bass construct

[2] = biological target: T1, Insulin receptor prepared according to …
[3] = biological target: T2, Soluble IGF-1R (R&D Systems, Cat. # 391-GR/CF) (UniProt P08069 31-935, limits assumed)
T2 construct: extracellular domain; also called sIGF-1R; IGFR

[4] = biological target: T2, Soluble IGF-1R (R&D Systems, Cat. # …); assay: phage ELISA: IGF-1R ratio over background divided by IR ratio over background
[5] = biological target: T3, soluble human insulin receptor-immunoglobulin heavy chain chimera (sIR-Fc; Bass et al., 1996) (human, UniProt P06213 28-956, limits assumed); assay: phage ELISA
T3 construct: extracellular domain; also called soluble IR (Bass construct); not shown: immunoglobulin heavy chain constant domains

[6] = biological target: T4, Soluble IGF-1R (sIGF-1R), R&D Systems Cat. # 391-GR/CF (UniProt P08069 31-935, limits assumed); assay: phage ELISA
T4 construct: extracellular domain

[7] = biological target: human insulin receptor (HIR) (human, UniProt P06213 28-1382, limits assumed); assay: competition with 125I-insulin, solubilised HIR

B1: B6Hα-2-D8-IR (peptide)
peptide: DYKDSSETAKMVTGTRDDPFYHKLSELVQGSAAAGAP
notes: not shown: rest of the phage display fusion (remainder of E-Tag, phage coat protein)
- Comparison IR/IGF-1R [1]: 0.3 ratio
- Ratio over Background, IR [2]: 1 ratio over background
- Ratio over Background, IGF-1R [3]: 3 ratio over background
- Comparison IGF-1R/IR [4]: 3 ratio

Binder: PPLASDLDVQFYGWFVQQVSPPGRGG [H2CA-2-B3-IGFR]
- IR/IGF-1R comparison [5]: 0.3
- Ratio over Background [5]: 1
- IGF-1R/IR comparison [6]: 3.6
- Ratio over Background [6]: 3.8

B2: B6L-3-G5-IR (peptide)
peptide: DYKDAETSAQVGWQRLWSVWPGDHWSTLDPFYHKLSELLRESGAAAAGAP
notes: as for B1
- Comparison IR/IGF-1R [1]: 0.7 ratio
- Ratio over Background, IR [2]: 1.4 ratio over background
- Ratio over Background, IGF-1R [3]: 2 ratio over background
- Comparison IGF-1R/IR [4]: 1.4 ratio

B3: B6Hα-3-E6-IR (peptide)
peptide: DYKDCGAKMTGTPNDPFYHKLSELLQRGAAAGAP
notes: as for B1
- Comparison IR/IGF-1R [1]: 0.5 ratio
- Ratio over Background, IR [2]: 1.2 ratio over background
- Ratio over Background, IGF-1R [3]: 2.3 ratio over background
- Comparison IGF-1R/IR [4]: 1.9 ratio

B4: 20E2Bβ-3-C7-IR (peptide)
peptide: DYKDQSGSGDFYDWLSRLIRGNGDGAAAGAP
notes: as for B1
- Comparison IR/IGF-1R [1]: 0.5 ratio
- Ratio over Background, IR [2]: 1.5 ratio over background
- Ratio over Background, IGF-1R [3]: 3.1 ratio over background
- Comparison IGF-1R/IR [4]: 2 ratio

B5: S550 (peptide)
peptide: GSLDESFYDWFERQLGXK
modifications: as printed: Ac-GSLDESFYDWFERQLG-POX-K; N-terminal acetyl; POX between G and the C-terminal K
notes: POX is not explained
- Kd [7]: 40 nM

B6: B6Hα-3-F7-IR (peptide)
peptide: DYKDSRVAATKEKRPSDDPFYHKLSELLQGSAAAGAP
notes: as for B1
- Comparison IR/IGF-1R [1]: 0.3 ratio
- Ratio over Background, IR [2]: 1 ratio over background
- Ratio over Background, IGF-1R [3]: 3.1 ratio over background
- Comparison IGF-1R/IR [4]: 3.1 ratio

B7: 40F-4-B1-IGFR (peptide)
peptide: DYKDGLDHSDAVGVHLGFAWPAQARGRWEAGGLEDTWAGYDWLAAAGAP
notes: as for B1
- Comparison IR/IGF-1R [1]: 0.1 ratio
- Ratio over Background, IR [2]: 0.2 ratio over background
- Ratio over Background, IGF-1R [3]: 3 ratio over background
- Comparison IGF-1R/IR [4]: 13.1 ratio

Binder: SRAKVEAEMPDSGDPFYHKLSELLASG [B6Hα-1-A3-IR]
- IR/IGF-1R comparison [5]: 0.3
- Ratio over Background [5]: 0.8
- IGF-1R/IR comparison [6]: 3.3
- Ratio over Background [6]: 2.6

Binder: LDQEWAWVQSEVYGRGSPSESFYDWFERQL [S509]
- Kd [7]: 5.7 nM

Binder: GFREGNFYEWFQAQVT [E4Dα-4-H2-IR]
- IR/IGF-1R comparison [5]: 0.2
- Ratio over Background [5]: 8.2
- IGF-1R/IR comparison [6]: 4.1
- Ratio over Background [6]: 33.9

Binder: SLEEEWAQVECEVYGRGCPSESFYDWFVRQLG [S555]
- Kd [7]: 0.057 nM

Binder: SSCDGAGHESFYEWFVRQVSGCRSV [H2CA-3-C8-IGFR]
- IR/IGF-1R comparison [5]: 0.2
- Ratio over Background [5]: 1.2
- IGF-1R/IR comparison [6]: 4.8
- Ratio over Background [6]: 5.6

Binder: SLEEEWAQVECEVYGRGCPSGSLDESFYHWFERQLG [S542]
- Kd [7]: 0.027 nM

B8: B6Hα-1-B3-IR (peptide)
peptide: DYKDGCITAENGAGDPFYHKLSELGGCSAAAGAP
notes: as for B1
- Comparison IR/IGF-1R [1]: 0.3 ratio
- Ratio over Background, IR [2]: 1.1 ratio over background
- Ratio over Background, IGF-1R [3]: 3.2 ratio over background
- Comparison IGF-1R/IR [4]: 2.9 ratio

Binder: LRRQAPVEENFYDWFVRQVSGDRVGG [H2CA-3-D7-IGFR]
- IR/IGF-1R comparison [5]: 0.3
- Ratio over Background [5]: 0.8
- IGF-1R/IR comparison [6]: 3.7
- Ratio over Background [6]: 3

B9: B6Hα-3-E5-IR (peptide)
peptide: DYKDRCGDEEGWQENRRDDPFYHKLSELFGGCAAAGAP
notes: as for B1
- Comparison IR/IGF-1R [1]: 0.3 ratio
- Ratio over Background, IR [2]: 1 ratio over background
- Ratio over Background, IGF-1R [3]: 2.9 ratio over background
- Comparison IGF-1R/IR [4]: 2.9 ratio

Binder: FYVQQWGHENFYDWFDRQVSQSGGAG [H2CA-4-F1-IGFR]
- IR/IGF-1R comparison [5]: 0.3
- Ratio over Background [5]: 0.9
- IGF-1R/IR comparison [6]: 3.8
- Ratio over Background [6]: 3.5

Binder: CCLLCRFQQNFYDWFVCQGISRLRPL [H2CA-2-B4-IGFR]
- IR/IGF-1R comparison [5]: 0.3
- Ratio over Background [5]: 1.1
- IGF-1R/IR comparison [6]: 3.6
- Ratio over Background [6]: 4.1

B10: 20E2A-4-G11-IGFR (peptide)
peptide: DYKDMNVFVSFYDAIDQLVCQRIGCAAAGAP
notes: as for B1
- Comparison IR/IGF-1R [1]: 0.4 ratio
- Ratio over Background, IR [2]: 1.3 ratio over background
- Ratio over Background, IGF-1R [3]: 3.3 ratio over background
- Comparison IGF-1R/IR [4]: 2.6 ratio

B11: B6Hα-3-F1-IR (peptide)
peptide: DYKDCSMAAVAEAGDDDDPFYHKLSELCQGSAAAGAP
notes: as for B1
- Comparison IR/IGF-1R [1]: 0.5 ratio
- Ratio over Background, IR [2]: 1.3 ratio over background
- Ratio over Background, IGF-1R [3]: 2.4 ratio over background
- Comparison IGF-1R/IR [4]: 1.8 ratio

Binder: SLEEEWAQIECEVWGRGCPSGSLDESFYDWFERQL [S560]
- Kd [7]: 0.014 nM

Binder: RCGRELYHSTFYDWFDRQVAGRTCPS [H2CA-1-A7-IGFR]
- IR/IGF-1R comparison [5]: 0.3
- Ratio over Background [5]: 0.6
- IGF-1R/IR comparison [6]: 3.7
- Ratio over Background [6]: 2.2

B12: 40F-4-D1-IGFR (peptide)
peptide: DYKDLSCLAYSRHGIWRPSTDLGLGRSVGEGSVSTRWRGYDWFEAAAGAP
notes: as for B1
- Comparison IR/IGF-1R [1]: 0.1 ratio
- Ratio over Background, IR [2]: 0.3 ratio over background
- Ratio over Background, IGF-1R [3]: 4.6 ratio over background
- Comparison IGF-1R/IR [4]: 13.1 ratio

Binder: GIISQSCPESFYDWFAGQVSDPWWCW [H2CA-4-G9-IGFR]
- IR/IGF-1R comparison [5]: 0.1
- Ratio over Background [5]: 0.6
- IGF-1R/IR comparison [6]: 16
- Ratio over Background [6]: 9.5

B13: R20β-4-E8-IR (peptide)
peptide: DYKDVRGFQGGTVWPGYEWLRNAAAAAGAP
notes: as for B1
- Comparison IR/IGF-1R [1]: 0.1 ratio
- Ratio over Background, IR [2]: 3.6 ratio over background
- Ratio over Background, IGF-1R [3]: 34.9 ratio over background
- Comparison IGF-1R/IR [4]: 9.7 ratio

Binder: SIEEEWAQIKCDVWGRGCPSESFYDWFERQL [S517]
- Kd [7]: 0.006 nM

B14: 20E2A-3-A3-IGFR (peptide)
peptide: DYKDGHYFGSFYDAIDQLVAGMLPGAAAGAP
notes: as for B1
- Comparison IR/IGF-1R [1]: 0.5 ratio
- Ratio over Background, IR [2]: 1.5 ratio over background
- Ratio over Background, IGF-1R [3]: 3 ratio over background
- Comparison IGF-1R/IR [4]: 1.9 ratio

Binder: QSPVGSSHEDFYDWFFRQVAQSGAHQ [H2CA-3-D6-IGFR]
- IR/IGF-1R comparison [5]: 0.3
- Ratio over Background [5]: 2.2
- IGF-1R/IR comparison [6]: 4
- Ratio over Background [6]: 9

Binder: SSIGGGFHENFYDWFSRQLSQSPPLK [H2CA-4-F7-IGFR]
- IR/IGF-1R comparison [5]: 0.2
- Ratio over Background [5]: 0.8
- IGF-1R/IR comparison [6]: 4.1
- Ratio over Background [6]: 3.2

Binder: HHHHHHKLDQEWAWVQCEVYGRGCPSESFYDWFERQLG [S481]
- Kd [7]: 1.3 nM

Binder: QAVQPGFHEEFYDWFVRQVSTGVGGG [H2CA-4-H4-IGFR]
- IR/IGF-1R comparison [5]: 0.2
- Ratio over Background [5]: 1
- IGF-1R/IR comparison [6]: 4.2
- Ratio over Background [6]: 4.1

Binder: TLDGGSFEEQFYDWFVRQLSYRTNPD [H2CA-4-G11-IGFR]
- IR/IGF-1R comparison [5]: 0.3
- Ratio over Background [5]: 2.5
- IGF-1R/IR comparison [6]: 3.9
- Ratio over Background [6]: 9.5

B15: 20E2A-3-A4-IGFR (peptide)
peptide: DYKDAGSVTSFYDAMEQLVATGTSAAAAGAP
notes: as for B1
- Comparison IR/IGF-1R [1]: 0.7 ratio
- Ratio over Background, IR [2]: 1.8 ratio over background
- Ratio over Background, IGF-1R [3]: 2.5 ratio over background
- Comparison IGF-1R/IR [4]: 1.4 ratio

Binder: NYRRQVFNGNFYDWFDRQVFSLVTPG [H2CA-3-D8-IGFR]
- IR/IGF-1R comparison [5]: 0.3
- Ratio over Background [5]: 1.8
- IGF-1R/IR comparison [6]: 4
- Ratio over Background [6]: 7.2

Binder: APDPSDFQEIFYDWFVRQVSRMPGGG [H2CA-1-A3-IGFR]
- IR/IGF-1R comparison [5]: 0.2
- Ratio over Background [5]: 0.8
- IGF-1R/IR comparison [6]: 5.1
- Ratio over Background [6]: 3.8

Binder: RAGSSDFHEDFYEWFVRQVSLSLKGK [H2CA-2-B9-IGFR]
- IR/IGF-1R comparison [5]: 0.2
- Ratio over Background [5]: 1.7
- IGF-1R/IR comparison [6]: 4.2
- Ratio over Background [6]: 7
